In patent US20230118024A1 (Chugai, published 2023):

T1: HLA-DQ2.5 on Ba/F3 cells (not in the form of a complex with a linked peptide) (human, UniProt P01909 24-254; P01920 33-261)
T1 construct: also called Ba/F3-HLA-DQ2.5; No peptide
T1 MHC II alpha: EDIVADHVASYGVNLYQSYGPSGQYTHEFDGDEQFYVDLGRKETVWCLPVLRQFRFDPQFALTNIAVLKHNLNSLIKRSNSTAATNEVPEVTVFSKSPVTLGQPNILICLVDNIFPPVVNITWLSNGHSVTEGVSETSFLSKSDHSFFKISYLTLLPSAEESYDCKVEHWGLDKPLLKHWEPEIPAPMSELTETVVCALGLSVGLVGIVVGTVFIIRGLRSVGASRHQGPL
T1 MHC II beta: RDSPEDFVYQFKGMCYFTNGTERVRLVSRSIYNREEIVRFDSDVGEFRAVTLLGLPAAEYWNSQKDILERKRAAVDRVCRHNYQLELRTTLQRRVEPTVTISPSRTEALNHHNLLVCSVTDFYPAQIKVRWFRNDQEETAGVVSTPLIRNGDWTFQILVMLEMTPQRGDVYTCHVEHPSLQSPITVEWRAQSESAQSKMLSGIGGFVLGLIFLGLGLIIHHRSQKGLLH

T2: HLA-DQ2.2 on Ba/F3 cells (human, UniProt P01909 24-254; P01920 33-261)
T2 construct: also called Ba/F3-HLA-DQ2.2
T2 MHC II alpha: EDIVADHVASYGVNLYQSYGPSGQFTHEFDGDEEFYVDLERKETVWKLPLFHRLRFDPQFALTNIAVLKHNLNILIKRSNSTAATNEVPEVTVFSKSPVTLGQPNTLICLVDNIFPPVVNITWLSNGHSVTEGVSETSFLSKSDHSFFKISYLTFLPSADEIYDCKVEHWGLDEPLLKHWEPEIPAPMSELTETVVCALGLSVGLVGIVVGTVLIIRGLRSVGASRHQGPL
T2 MHC II beta: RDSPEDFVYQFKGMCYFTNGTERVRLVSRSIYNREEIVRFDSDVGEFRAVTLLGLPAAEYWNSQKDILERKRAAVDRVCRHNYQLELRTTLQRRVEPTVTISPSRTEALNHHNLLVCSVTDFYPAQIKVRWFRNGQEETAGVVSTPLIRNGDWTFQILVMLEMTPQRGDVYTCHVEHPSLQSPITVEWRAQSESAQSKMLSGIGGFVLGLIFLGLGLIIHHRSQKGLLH

T3: HLA-DQ2.5 on HLA-DQ2.5 positive PBMC-B cells (human, UniProt P01909 24-254; P01920 33-261)
T3 construct: also called DQ2.5 + PBMC; HLA-DQ2.5+PBMC B cell
T3 MHC II alpha: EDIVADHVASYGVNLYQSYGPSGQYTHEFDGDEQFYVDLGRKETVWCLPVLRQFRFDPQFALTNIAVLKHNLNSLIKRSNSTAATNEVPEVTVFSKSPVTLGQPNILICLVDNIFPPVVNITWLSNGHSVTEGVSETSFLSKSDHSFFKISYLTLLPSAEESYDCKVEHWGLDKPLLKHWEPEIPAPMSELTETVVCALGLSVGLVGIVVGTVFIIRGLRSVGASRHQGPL
T3 MHC II beta: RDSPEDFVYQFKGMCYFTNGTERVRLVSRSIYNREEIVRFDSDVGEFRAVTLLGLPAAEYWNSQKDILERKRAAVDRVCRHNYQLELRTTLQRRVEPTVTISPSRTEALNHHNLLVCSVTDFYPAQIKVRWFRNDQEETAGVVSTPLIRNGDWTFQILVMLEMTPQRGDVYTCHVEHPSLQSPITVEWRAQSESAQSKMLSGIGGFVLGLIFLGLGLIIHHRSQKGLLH

T4: HLA-DQ8 on Ba/F3 cells (human, UniProt P01909 24-254; P01920 33-261)
T4 construct: also called Ba/F3-HLA-DQ8
T4 MHC II alpha: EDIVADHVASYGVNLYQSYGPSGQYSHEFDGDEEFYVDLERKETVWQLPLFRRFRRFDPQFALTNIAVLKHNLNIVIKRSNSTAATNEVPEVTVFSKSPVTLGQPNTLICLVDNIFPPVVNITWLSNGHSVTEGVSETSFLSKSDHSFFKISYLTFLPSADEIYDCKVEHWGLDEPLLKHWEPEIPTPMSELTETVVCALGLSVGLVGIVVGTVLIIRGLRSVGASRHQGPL
T4 MHC II beta: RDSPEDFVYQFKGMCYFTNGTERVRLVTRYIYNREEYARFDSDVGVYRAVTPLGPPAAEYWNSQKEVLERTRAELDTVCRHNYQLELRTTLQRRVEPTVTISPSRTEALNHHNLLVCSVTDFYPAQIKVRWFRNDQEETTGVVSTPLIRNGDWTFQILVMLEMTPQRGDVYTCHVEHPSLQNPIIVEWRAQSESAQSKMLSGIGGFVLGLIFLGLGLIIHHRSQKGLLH

T5: HLA-DQ7.3 on Ba/F3 cells (human, UniProt P01909 24-254; P01920 33-261)
T5 construct: also called Ba/F3-HLA-DQ7.3
T5 MHC II alpha: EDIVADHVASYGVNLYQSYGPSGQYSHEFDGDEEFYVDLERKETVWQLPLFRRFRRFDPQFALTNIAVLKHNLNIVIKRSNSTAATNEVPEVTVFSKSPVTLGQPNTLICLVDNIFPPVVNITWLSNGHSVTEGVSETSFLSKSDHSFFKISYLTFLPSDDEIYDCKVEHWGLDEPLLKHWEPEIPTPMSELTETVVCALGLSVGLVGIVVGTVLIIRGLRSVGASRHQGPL
T5 MHC II beta: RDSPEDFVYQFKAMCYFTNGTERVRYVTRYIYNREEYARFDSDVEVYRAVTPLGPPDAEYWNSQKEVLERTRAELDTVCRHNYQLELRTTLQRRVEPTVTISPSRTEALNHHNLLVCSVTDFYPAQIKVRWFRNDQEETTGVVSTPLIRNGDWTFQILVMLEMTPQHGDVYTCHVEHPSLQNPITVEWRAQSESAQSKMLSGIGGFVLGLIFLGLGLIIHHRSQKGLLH

T6: HLA-DR on Ba/F3 cells (human, UniProt P01903 26-216; P79483 30-227, limits assumed)
T6 construct: whole, on cells; also called Ba/F3-HLA-DR
T6 MHC II alpha: not shown
T6 MHC II beta: not shown


Tests used:
[1] = molecular target: T1, HLA-DQ2.5 on Ba/F3 cells (not in the …); experiment: FACS, Ba/F3 cells expressing the target, goat F(ab')2 anti-human IgG-PE (Example 7)
HLA-DQ2.2 on Ba/F3 cells = molecular target: T2, HLA-DQ2.2 on Ba/F3 cells; experiment: FACS, Ba/F3 cells expressing the target, goat F(ab')2 anti-human IgG-PE (Example 9)
[2] = molecular target: T3, HLA-DQ2.5 on HLA-DQ2.5 positive PBMC-B …; experiment: FACS, HLA-DQ2.5 positive PBMC with FcR blocking reagent, anti-CD19 stain, Alexa Fluor 555 anti-human IgG Fc antibody (Example 8)
HLA-DQ6.3 on Ba/F3 cells = molecular target: T7, HLA-DQ6.3 on Ba/F3 cells (human, UniProt P01920 33-261); experiment: FACS, Ba/F3 cells expressing the target, goat F(ab')2 anti-human IgG-PE (Example 4.2)
T7 construct: also called BaF3-HLA-DQ6.3

HLA-DQ8 on Ba/F3 cells = molecular target: T4, HLA-DQ8 on Ba/F3 cells; experiment: FACS, Ba/F3 cells expressing the target, goat F(ab')2 anti-human IgG-PE (Example 10)
HLA-DP on Ba/F3 cells [3] = molecular target: T8, HLA-DP on Ba/F3 cells (human, UniProt P20036 29-222; P04440 30-225, limits assumed); experiment: as above
T8 construct: whole, on cells; also called Ba/F3-HLA-DP

HLA-DQ5.1 on Ba/F3 cells = molecular target: T9, HLA-DQ5.1 on Ba/F3 cells (human); experiment: as above
T9 construct: also called BaF3-HLA-DQ5.1

HLA-DQ7.3 on Ba/F3 cells = molecular target: T5, HLA-DQ7.3 on Ba/F3 cells; experiment: FACS, Ba/F3 cells expressing the target, goat F(ab')2 anti-human IgG-PE (Example 4.2)
HLA-DR on Ba/F3 cells [4] = molecular target: T6, HLA-DR on Ba/F3 cells; experiment: FACS, Ba/F3 cells expressing the target, goat F(ab')2 anti-human IgG-PE (Example 10)
HLA-DP on Ba/F3 cells [5] = molecular target: T8, HLA-DP on Ba/F3 cells; experiment: FACS, FIG. 6
HLA-DR on Ba/F3 cells [6] = molecular target: T6, HLA-DR on Ba/F3 cells; experiment: FACS, FIG. 7

T8 sequence (P20036 29-222 limits assumed, chain 1 of 4, other chains not shown): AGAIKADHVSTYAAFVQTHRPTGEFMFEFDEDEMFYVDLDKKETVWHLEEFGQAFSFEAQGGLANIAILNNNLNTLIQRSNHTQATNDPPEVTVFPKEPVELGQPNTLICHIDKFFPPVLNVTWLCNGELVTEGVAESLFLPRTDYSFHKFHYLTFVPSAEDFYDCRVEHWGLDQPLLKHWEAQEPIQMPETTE
T8 sequence (P04440 30-225 limits assumed, chain 2 of 4, other chains not shown): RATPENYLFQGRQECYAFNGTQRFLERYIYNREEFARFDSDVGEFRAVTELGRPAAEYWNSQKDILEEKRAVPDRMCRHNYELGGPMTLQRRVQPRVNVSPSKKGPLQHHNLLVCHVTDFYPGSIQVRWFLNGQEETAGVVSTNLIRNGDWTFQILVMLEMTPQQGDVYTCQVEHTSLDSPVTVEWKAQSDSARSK

Binder	binding result [1]	binding result (HLA-DQ2.2 on Ba/F3 cells)	binding result [2]	binding result (HLA-DQ6.3 on Ba/F3 cells)	binding result (HLA-DQ8 on Ba/F3 cells)	binding result (HLA-DP on Ba/F3 cells [3])	binding result (HLA-DQ5.1 on Ba/F3 cells)	binding result (HLA-DQ7.3 on Ba/F3 cells)	binding result (HLA-DR on Ba/F3 cells [4])	binding result (HLA-DP on Ba/F3 cells [5])	binding result (HLA-DR on Ba/F3 cells [6])
IC17 (antibody, V domains shown, also called IC17H; IC17L) VH: QVQLQQSGPQLVRPGASVNISCKASGYSFTSYWMHWVNQRPGQGLEWIGMIDPSYSETRLNQKFKDKATLTVDKSSSTAYMQLSSPTSEDSAVYYCALYGNYFDYWGQGTTLTVSS VL: DIQMTQSSSSFSVSLGDRVTITCKASEDIYNRLAWYQQKPGNAPRLLISGATSLETGVPSRFSGSGSGKDYTLSITSLQTEDVATYYCQQYWSTPYTFGGGTKLEVK	no binding (tested: 10 microgram/mL)	no binding (tested: 10 microgram/mL)	no binding (tested: 10 microgram/mL)	no binding (tested: 20 microgram/mL)	no binding (tested: 20 microgram/mL)	no binding (tested: 20 microgram/mL)	no binding (tested: 20 microgram/mL)	no binding (tested: 20 microgram/mL)	no binding (tested: 20 microgram/mL)		
DQN0089ff (antibody, V domains shown, also called DQN0089Hf; DQN0089Lf) VH: QEQVVEYGGDLVQPEGSLTLTCKASGLDFSSTYYMCWVRQAPGKGLEWIGCIYGGSSDSTYYASWAKGRFTISKTSPTTVTLQMTSLTAADTATHFCATYDYGAVGYDLWGPGTLVTVSS VL: EVVVTQTPASVEVAVGGTVTIKCQASQNISPYLSWYQQKPGQPPKLLIYKASTLASGVSSRFKGSGSGTQFTLTISDLECADAATYYCQNNYGVSINYGHTFGGGTKVEIK										binds	binds
